# Key:
# [1] = system: AncSZ; assay: phosphorylation enrichment, bacterial display (enrichment ratio); higher = better substrate or ligand; peptides without Tyr show the background
# [2] = target: EPHB1 (UniProt P54762); assay: as above
# [3] = target: EPHB2 (UniProt P29323); assay: as above
# [4] = target: FGFR1 (UniProt P11362); assay: as above
# [5] = target: FGFR3 (UniProt P22607); assay: as above
# [6] = system: Fer (mouse); assay: as above
# [7] = target: Fes (UniProt P07332); assay: as above
# [8] = target: Fyn (UniProt P06241); assay: as above
# [9] = target: Hck (UniProt P08631); assay: as above
# [10] = target: Jak2 (UniProt O60674); assay: as above
# [11] = target: MERTK (UniProt Q12866); assay: as above
# [12] = system: c-Abl (mouse); assay: as above
# [13] = system: c-Src; assay: as above
# [14] = target: Grb2 SH2 (UniProt P62993); assay: SH2 binding enrichment of the phosphorylated peptide, bacterial display (enrichment ratio); higher = better substrate or ligand; peptides without Tyr show the background
# [15] = target: SHP2-C SH2; assay: as above
# [16] = target: c-Src SH2; assay: as above
# 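Wherever SH2 binding enrichment of the phosphorylated peptide, bacterial display is given: peptide library displayed on the E. coli surface as eCPX fusions, selected cells deep-sequenced, score is each peptide's frequency after selection divided by its frequency in the input.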
# 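Wherever phosphorylation enrichment, bacterial display is given: 11-residue human phosphosite peptides and single-mutation variants displayed on the E. coli surface, counted by deep sequencing, each peptide's frequency after selection divided by its frequency in the unselected input library; frequency after pTyr selection over input frequency; kinase dosed for 20-30% of maximal phosphorylation in three min.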
# Chain of Jak2 (O60674 whole entry, looked up): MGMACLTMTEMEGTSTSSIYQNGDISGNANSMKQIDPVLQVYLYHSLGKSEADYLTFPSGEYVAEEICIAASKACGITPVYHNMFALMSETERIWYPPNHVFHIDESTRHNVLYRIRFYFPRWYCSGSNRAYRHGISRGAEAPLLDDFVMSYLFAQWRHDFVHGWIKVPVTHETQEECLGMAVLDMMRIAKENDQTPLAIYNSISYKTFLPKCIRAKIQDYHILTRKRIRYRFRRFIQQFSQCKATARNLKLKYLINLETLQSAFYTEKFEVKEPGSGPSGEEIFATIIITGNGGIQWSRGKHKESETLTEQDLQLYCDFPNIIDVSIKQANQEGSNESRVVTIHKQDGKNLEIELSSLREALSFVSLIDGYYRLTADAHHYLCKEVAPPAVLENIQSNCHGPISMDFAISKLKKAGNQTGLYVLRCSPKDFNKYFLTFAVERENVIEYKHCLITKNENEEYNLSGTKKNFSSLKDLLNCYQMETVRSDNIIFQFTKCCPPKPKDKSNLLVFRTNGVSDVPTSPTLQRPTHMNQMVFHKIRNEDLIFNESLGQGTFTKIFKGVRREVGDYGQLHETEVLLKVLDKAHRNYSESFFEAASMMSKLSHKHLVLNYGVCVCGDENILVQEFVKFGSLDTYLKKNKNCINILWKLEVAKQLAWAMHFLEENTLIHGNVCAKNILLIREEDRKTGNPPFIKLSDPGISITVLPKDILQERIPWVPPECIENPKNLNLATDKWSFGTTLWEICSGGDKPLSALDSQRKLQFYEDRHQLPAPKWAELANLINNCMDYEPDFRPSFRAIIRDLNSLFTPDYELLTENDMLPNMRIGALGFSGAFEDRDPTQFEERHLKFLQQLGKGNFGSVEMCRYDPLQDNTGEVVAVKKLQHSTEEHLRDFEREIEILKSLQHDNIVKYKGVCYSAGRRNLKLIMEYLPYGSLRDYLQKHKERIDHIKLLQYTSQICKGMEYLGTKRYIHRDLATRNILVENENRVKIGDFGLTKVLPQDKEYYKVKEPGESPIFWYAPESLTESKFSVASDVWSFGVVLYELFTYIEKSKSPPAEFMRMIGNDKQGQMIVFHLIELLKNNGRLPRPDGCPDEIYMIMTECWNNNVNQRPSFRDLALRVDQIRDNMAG
# Chain of FGFR1 (P11362 whole entry, looked up): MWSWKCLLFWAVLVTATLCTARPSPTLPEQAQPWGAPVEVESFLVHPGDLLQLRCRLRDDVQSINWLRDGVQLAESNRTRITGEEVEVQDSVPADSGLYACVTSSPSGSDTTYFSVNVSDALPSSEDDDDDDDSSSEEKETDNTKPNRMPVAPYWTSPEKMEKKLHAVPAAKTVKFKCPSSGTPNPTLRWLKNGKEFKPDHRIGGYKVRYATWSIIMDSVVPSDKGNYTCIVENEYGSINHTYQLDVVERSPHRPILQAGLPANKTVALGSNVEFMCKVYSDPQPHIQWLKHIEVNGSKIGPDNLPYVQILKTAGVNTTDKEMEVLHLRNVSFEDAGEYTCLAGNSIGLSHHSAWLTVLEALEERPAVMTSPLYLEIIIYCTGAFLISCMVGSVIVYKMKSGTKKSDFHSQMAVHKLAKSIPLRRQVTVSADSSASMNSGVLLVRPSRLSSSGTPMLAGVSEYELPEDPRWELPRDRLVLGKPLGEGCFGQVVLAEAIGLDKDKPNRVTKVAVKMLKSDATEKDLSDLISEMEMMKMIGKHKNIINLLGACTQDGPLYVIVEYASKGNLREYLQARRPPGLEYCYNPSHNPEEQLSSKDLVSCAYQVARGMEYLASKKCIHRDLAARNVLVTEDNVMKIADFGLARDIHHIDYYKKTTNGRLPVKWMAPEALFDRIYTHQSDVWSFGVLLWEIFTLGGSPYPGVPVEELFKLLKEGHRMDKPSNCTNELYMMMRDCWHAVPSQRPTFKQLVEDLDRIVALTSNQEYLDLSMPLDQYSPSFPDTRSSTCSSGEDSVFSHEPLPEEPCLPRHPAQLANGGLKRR
# Chain of FGFR3 (P22607 whole entry, looked up): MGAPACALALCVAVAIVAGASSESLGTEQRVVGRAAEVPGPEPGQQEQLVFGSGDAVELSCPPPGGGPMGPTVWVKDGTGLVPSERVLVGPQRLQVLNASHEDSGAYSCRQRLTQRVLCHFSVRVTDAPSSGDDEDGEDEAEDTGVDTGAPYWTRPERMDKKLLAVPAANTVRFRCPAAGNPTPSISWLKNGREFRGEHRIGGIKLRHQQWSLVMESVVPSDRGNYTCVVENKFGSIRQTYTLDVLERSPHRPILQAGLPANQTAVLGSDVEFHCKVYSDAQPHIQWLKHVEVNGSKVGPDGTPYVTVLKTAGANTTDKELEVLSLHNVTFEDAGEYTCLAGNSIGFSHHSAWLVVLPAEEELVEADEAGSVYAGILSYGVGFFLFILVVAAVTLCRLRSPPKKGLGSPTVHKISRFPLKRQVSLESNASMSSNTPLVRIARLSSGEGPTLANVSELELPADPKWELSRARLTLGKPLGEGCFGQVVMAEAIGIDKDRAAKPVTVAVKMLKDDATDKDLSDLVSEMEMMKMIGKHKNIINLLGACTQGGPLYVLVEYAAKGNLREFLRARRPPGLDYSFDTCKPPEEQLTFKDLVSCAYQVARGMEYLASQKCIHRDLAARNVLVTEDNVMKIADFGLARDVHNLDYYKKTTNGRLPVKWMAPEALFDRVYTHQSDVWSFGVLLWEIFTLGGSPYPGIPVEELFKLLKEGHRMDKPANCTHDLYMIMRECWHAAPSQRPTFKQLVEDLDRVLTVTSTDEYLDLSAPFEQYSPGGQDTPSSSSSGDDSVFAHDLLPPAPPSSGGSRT
# Chain of MERTK (Q12866 whole entry, looked up): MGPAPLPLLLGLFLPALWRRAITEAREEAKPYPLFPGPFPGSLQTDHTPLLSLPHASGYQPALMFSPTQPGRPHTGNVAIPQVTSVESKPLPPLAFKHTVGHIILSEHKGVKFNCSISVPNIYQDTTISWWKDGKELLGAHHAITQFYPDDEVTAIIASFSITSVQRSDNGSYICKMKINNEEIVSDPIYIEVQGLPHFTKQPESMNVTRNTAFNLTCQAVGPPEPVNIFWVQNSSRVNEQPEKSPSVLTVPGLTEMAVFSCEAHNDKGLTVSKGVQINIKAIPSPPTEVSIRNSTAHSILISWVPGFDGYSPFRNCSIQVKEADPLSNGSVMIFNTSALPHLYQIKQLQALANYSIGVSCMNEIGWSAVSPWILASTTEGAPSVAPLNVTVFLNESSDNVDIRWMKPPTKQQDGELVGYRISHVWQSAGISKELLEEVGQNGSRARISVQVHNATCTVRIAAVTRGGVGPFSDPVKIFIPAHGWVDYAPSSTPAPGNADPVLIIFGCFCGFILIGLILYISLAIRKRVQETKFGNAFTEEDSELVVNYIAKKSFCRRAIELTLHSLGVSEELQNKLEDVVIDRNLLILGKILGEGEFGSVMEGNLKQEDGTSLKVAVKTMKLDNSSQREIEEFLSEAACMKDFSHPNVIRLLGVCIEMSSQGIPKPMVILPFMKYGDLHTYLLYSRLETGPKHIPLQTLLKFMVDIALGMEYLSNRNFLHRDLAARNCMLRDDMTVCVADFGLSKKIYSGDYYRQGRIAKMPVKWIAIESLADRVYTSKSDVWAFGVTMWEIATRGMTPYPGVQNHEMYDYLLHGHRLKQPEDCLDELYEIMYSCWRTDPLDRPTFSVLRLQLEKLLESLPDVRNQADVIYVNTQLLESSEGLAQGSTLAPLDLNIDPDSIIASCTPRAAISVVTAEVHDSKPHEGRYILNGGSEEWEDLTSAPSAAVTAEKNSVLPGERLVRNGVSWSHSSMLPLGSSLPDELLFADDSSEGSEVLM
# Chain of Fyn (P06241 whole entry, looked up): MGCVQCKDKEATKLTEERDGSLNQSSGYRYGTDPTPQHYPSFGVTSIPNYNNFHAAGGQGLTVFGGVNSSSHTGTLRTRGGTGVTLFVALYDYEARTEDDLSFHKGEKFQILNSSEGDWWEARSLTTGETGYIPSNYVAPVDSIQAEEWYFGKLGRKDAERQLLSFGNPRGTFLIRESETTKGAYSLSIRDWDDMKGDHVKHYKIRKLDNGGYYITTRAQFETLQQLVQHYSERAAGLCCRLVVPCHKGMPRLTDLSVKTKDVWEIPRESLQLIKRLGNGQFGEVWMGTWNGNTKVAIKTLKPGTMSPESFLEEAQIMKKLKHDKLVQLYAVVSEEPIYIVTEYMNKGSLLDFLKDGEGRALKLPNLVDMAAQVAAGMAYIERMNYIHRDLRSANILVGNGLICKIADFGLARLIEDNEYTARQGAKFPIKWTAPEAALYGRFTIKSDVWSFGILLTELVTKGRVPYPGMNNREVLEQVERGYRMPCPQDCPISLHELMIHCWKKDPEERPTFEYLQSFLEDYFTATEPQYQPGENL
# Chain of Hck (P08631 whole entry, looked up): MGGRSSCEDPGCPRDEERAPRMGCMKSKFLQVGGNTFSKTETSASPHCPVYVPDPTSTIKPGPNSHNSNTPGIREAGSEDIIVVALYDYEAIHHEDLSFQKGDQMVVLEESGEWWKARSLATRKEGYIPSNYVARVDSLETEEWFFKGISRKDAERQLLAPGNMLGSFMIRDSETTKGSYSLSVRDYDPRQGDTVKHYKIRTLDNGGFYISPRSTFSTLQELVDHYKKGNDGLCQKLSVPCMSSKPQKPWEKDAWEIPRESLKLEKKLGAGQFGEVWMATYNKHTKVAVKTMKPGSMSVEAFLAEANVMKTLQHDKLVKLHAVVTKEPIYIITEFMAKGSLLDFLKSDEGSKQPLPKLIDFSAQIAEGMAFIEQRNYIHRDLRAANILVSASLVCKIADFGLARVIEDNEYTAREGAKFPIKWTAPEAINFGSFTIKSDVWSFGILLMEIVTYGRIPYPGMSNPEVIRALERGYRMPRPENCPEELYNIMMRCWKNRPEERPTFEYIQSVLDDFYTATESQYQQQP
SH2 binding enrichment [14],SH2 binding enrichment [15],SH2 binding enrichment [16],Sequence,phosphorylation enrichment [1],phosphorylation enrichment [2],phosphorylation enrichment [3],phosphorylation enrichment [4],phosphorylation enrichment [5],phosphorylation enrichment [6],phosphorylation enrichment [7],phosphorylation enrichment [8],phosphorylation enrichment [9],phosphorylation enrichment [10],phosphorylation enrichment [11],phosphorylation enrichment [12],phosphorylation enrichment [13]
0.716,0.521,0.393,SVKVYYKKCWS [EPHA7_Y202],0.951,0.549,0.432,0.414,0.733,0.483,1.25,0.352,0.424,1.21,0.379,1.2,0.432
0.796,0.563,0.544,GYSRHCEDGYP [CTNND1_Y217_Y217C],0.869,0.521,0.83,0.46,0.556,0.465,0.972,0.44,0.5,0.879,0.446,0.928,0.489
1.18,1.07,0.872,AHPIIYEIIEA [PYKtide_E_2014],1.93,22.3,20.4,2.02,1.59,16.2,5.96,9.6,9.98,1.16,11.6,2.94,8.32
0.881,0.627,0.462,SVMAEYGLFAA [VSX2_Y219_G223A_YF],0.822,0.484,0.578,0.505,0.564,0.664,0.845,5.82,2.76,0.734,0.396,0.675,4.95
1.07,0.832,0.802,GRTNIYKNKKD [SLC26A3_Y520],0.467,0.415,0.393,0.369,0.475,0.349,0.648,0.308,0.447,0.66,0.43,0.721,0.434
0.642,0.636,0.342,KLMTEYKRRKQ [ARFGEF3_Y2029_K2031R],0.661,0.477,0.496,0.677,0.646,0.573,0.572,0.544,0.521,0.458,0.536,0.503,0.526
0.687,0.59,0.551,IGCHAYGDQYR [IDH1_Y135_R132C],1.04,0.593,0.556,0.634,0.741,0.569,1.19,0.424,0.5,0.979,0.384,0.796,0.493
1.26,1.31,0.671,GLAELYEYKKK [CKAP5_Y1854],0.671,0.479,0.397,0.7,0.546,0.32,0.719,0.569,0.924,0.393,0.303,0.464,0.489
1.05,1.1,1,AWVARYIFKRL [LPCAT3_Y348],1.26,0.555,0.472,0.351,0.604,0.482,1.25,0.502,0.48,1,0.424,0.748,0.346
0.753,0.605,0.79,MSYDRYMAICH [OR2A5_Y123],0.909,0.846,0.704,0.509,0.672,0.498,1.03,0.511,0.646,0.895,0.484,0.695,0.485
0.835,0.714,2.85,HNLPIYEGYAL [ACTA1_Y168_V165L],1.24,17,22.7,0.547,0.64,19.3,1.16,11.6,9.09,0.566,6.51,2.79,6.97
0.95,1.41,0.795,TDLAYYLVRKG [ASL_Y376],0.963,0.468,0.629,3.17,2.42,0.48,0.962,0.539,0.716,2.05,0.684,0.672,0.783
0.835,1.13,0.519,CEDGTYSPEIS [PTDSS1_Y424],1.2,0.649,0.578,0.5,0.824,0.589,1.33,0.512,0.595,1.33,0.486,0.838,0.663
0.691,0.682,0.559,LHAAAYRNALA [UQCRC2_Y182],0.686,0.362,0.491,0.415,0.402,0.33,0.871,0.55,0.484,0.594,0.407,0.303,0.398
0.957,0.88,0.524,PIDLFYLMDLS [ITGB2_Y131_YF],1.61,0.737,0.559,0.633,1.13,0.426,1.99,0.599,0.771,1.22,0.728,0.98,1.52

# Further lines, the sequence ahead of its results:
Sequence,SH2 binding enrichment [14],SH2 binding enrichment [15],SH2 binding enrichment [16],phosphorylation enrichment [1],phosphorylation enrichment [2],phosphorylation enrichment [3],phosphorylation enrichment [4],phosphorylation enrichment [5],phosphorylation enrichment [6],phosphorylation enrichment [7],phosphorylation enrichment [8],phosphorylation enrichment [9],phosphorylation enrichment [10],phosphorylation enrichment [11],phosphorylation enrichment [12],phosphorylation enrichment [13]
ADARMYGVLLW [PLP1_Y207_P211L],0.573,0.519,0.327,1.12,0.559,0.662,0.591,0.751,0.616,1.39,3.59,2.42,1.03,0.544,0.741,4.01
ETDSEYVKLAK [C7orf57_Y70],0.816,0.676,0.479,0.934,0.441,0.492,0.377,0.478,0.335,0.817,0.433,0.425,0.69,0.398,0.588,0.391
TLQSMFGCDVG [HLA-B_Y123_Y123F],0.79,0.684,0.541,0.989,0.657,0.85,0.515,0.7,0.523,1.09,0.648,0.489,0.852,0.511,0.637,0.44
KASRKYFAMKI [AKT3_Y173_G171R_YF],0.796,0.666,0.472,0.555,0.286,0.391,0.365,0.363,0.389,0.52,0.359,0.388,0.569,0.811,0.624,0.456
DNEALYDICFR [TUBB2B_Y208],0.77,0.627,0.469,3.21,4.63,4.88,0.618,0.917,10.2,1.6,6.65,6.43,1.38,7.51,3.58,5.86
DRLASSLDKVR [KRT10_Y160_Y160S],0.974,0.846,0.422,0.438,0.34,0.364,0.35,0.415,0.412,0.663,0.423,0.308,0.473,0.331,0.468,0.333
VLPIDYFFPPQ [AR_Y552_YF],0.986,0.882,0.696,2.91,0.708,0.914,11.5,9.06,0.35,0.82,0.574,0.604,0.969,0.459,0.502,0.522
EWKQKYEESQS [MYH6_Y1462],0.897,0.672,0.545,1.02,0.525,0.616,0.499,0.65,0.44,1.08,0.49,0.528,1.04,0.357,0.706,0.395
FSVDSYDSSVR [KCNQ1_Y461_G460S],1.02,0.865,0.718,0.734,0.451,0.87,0.44,0.548,0.498,1.39,0.474,0.47,0.693,0.406,0.523,0.474
NYADPYRQLPY [CTNND2_Y503_Q507P],0.775,0.749,1.25,0.78,10.1,10.7,4.13,2.33,0.469,0.819,0.501,0.847,0.669,6.98,0.847,0.827
ELPEKYSQNIY [PKP2_Y626],0.891,0.555,0.419,0.905,0.459,0.526,0.52,0.763,0.475,0.921,0.762,0.905,0.891,0.384,0.658,0.575
VNYGAYINNFK [GLB1_Y488_D491N],1.54,1.2,1.72,0.677,0.743,1.17,0.453,0.513,0.423,0.723,0.76,0.631,0.932,0.429,0.483,0.876
KWHREYNSKFV [RICTOR_Y835_YF],1.11,1.18,1.19,0.556,0.35,0.391,0.371,0.49,0.422,0.623,0.364,0.371,0.581,0.37,0.555,0.334
VDLSKYITTIA [FAS_Y232],0.881,0.604,0.451,0.657,0.378,0.341,0.363,0.452,0.394,0.815,0.348,0.407,0.67,0.426,0.513,0.424
SEKISYVYMKR [SSX7_Y48_L43S],1.15,3.87,0.993,0.912,0.553,0.504,0.6,0.748,0.387,0.967,0.469,0.479,0.964,0.385,0.538,0.444
KPFRVYCDMNT [FGB_Y269_YF],0.783,0.535,0.771,1.22,0.933,0.72,0.597,0.773,0.593,1.3,0.493,0.513,1.31,0.409,0.886,0.414
DFDNLYFWDQD [ERBB2_Y1221_A1216D_YF],0.668,0.854,0.333,2.2,1.57,1.07,7.58,7.69,2.2,1.71,6.47,5.15,1.25,4.6,0.801,5.27
GQECKYPPTQD [METAP2_Y137_E136K],1.04,0.689,0.63,0.86,0.521,0.507,0.569,0.638,0.511,1.14,0.515,0.52,1.03,0.553,0.727,0.504
